Test results taken from the supplement of paper PMC9170038.

System: MS2 coat protein
Test: apparent KD of MS2 coat protein; designed switch direction (-1 OFF switch, 1 ON switch): -1; higher = weaker reporter binding
Summary of the method: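 An oligonucleotide input, 200 uM small-molecule ligand, or no input was present during titration of SNAP-549-labelled MS2 coat protein, which was doubled from 0.7 or 1.5 nM to 3 µM. Designed RNA switches had been transcribed on Illumina chips by stalled E. coli RNA polymerase. Apparent KD per design is the median over clusters of curves fitted to normalised cluster fluorescence.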

[1] = input ligand: microRNA oligo, concentration not stated

| Sequence | apparent KD of MS2 coat protein (input ligand: FMN 200 uM) | apparent KD of MS2 coat protein [1] | apparent KD of MS2 coat protein (input ligand: none) |
| --- | --- | --- | --- |
| ACAUGAGGAUCACCCAUGUACAGGGUUUAGUUUCAUCGUUUGAAGGAUAUACUCCGUUAGUUGUCGUAGAAGGUCACAUUUUGG [JR_ExcNG3_Sub006] (Eterna round: R96, puzzle: Exclusion NG 3) | 189 nM | 120 nM | 145 nM |
| ACAUGAGGAUCACCCAUGUACAGGGUUUAGUUUCAUCGUUUGAAGGAUAUACUCCGUUAGUUGUUGUAGAAGGUCACAUUUUGG [JR_ExcNG3_Sub005] (Eterna round: R96, puzzle: Exclusion NG 3) | 167 nM | 89.2 nM | 142 nM |
| ACAUGAGGAUCACCCAUGUCAGGCAGGUCCACUCCGGCUGUUGAGGAUAUAGCCCGGUAUCCGCGCUAGAAGGUGAGGGCCGGC [Aenatbe mod 26] (Eterna round: R96, puzzle: Exclusion NG 3) | 15.3 nM | 15.7 nM | 21.6 nM |
| ACAUGAGGAUCACCCAUGUCAGGUUGGUUCUCUCCGGCUGUUGAGGAUAUAGUCCGGUAUCCGCGCUAGAAGGUGAGGGCUGGC [Aenatbe mod 14] (Eterna round: R96, puzzle: Exclusion NG 3) | 19.6 nM | 20.1 nM | 25.1 nM |
| ACAUGAGGAUCACCCAUGUCCGGCUGGUCCGUCUCGGCUGUCGAGGAUAUAGCUUGGUGUCCGCGCUAGAAGGUGGGAGCCGGU [Aenatbe mod 70] (Eterna round: R96, puzzle: Exclusion NG 3) | 61 nM | 40.2 nM | 56.6 nM |
| ACAUGAGGAUCACCCAUGUCCGGCUGGUCCGUCUCGGCUGUCGAGGAUAUGGCUCGGUGUCCGCGCUAGAAGGUGGGAGCCGGU [Aenatbe mod 74] (Eterna round: R96, puzzle: Exclusion NG 3) | 100 nM | 54 nM | 103 nM |
| ACAUGAGGAUCACCCAUGUCCGGCUGGUCUGUCUCGGCUGUCGAGGAUAUAGCACGGUAUCCGCGCUAGAAGGCGGGAGCCGGC [Aenatbe mod 89] (Eterna round: R96, puzzle: Exclusion NG 3) | 99.5 nM | 34.6 nM | 47.4 nM |
| ACAUGAGGAUCACCCAUGUCUGGCUGGUCCGCUCCGGCUGUUGAGGAUAUAGCUCGGUGUCCGCGCUAGAAGGUGAGGGCUGGC [Aenatbe mod 34] (Eterna round: R96, puzzle: Exclusion NG 3) | 32.4 nM | 19.5 nM | 31.9 nM |
| ACAUGAGGAUCACCCAUGUCUGGCUGGUCCGUCUCGGCUGUCGAGGAUAUGGCUCGGUGUCCGCGCUAGAAGGCGGGAGCUGGA [Aenatbe mod 78] (Eterna round: R96, puzzle: Exclusion NG 3) | 193 nM | 43 nM | 68.2 nM |
| ACAUGAGGAUCACCCAUGUGAAAACAAUGGCUGACUUUGAGAUAGGAUAUAUGUGCAUAUCAAACAUAGAAGGGUCAUUACUGG [Deportation 90 - Jieux - Exclusion NG 3] (Eterna round: R96, puzzle: Exclusion NG 3) | 41.4 nM | 25.9 nM | 47.2 nM |
| ACAUGAGGAUCACCCAUGUGAACGAAAAGGCUCAUGUAGAGUGAGGAUAUGUGAGACGAACGAGAACAGAAGGCACAAGACAGG [Deportation 1 - Jieux - Exclusion NG 3] (Eterna round: R96, puzzle: Exclusion NG 3) | 20.7 nM | 19.5 nM | 35.4 nM |
| ACAUGAGGAUCACCCAUGUGACAAUAAUGGCUGAUACAGAGACAGGAUAUACGUGAAUAUCUAACGUAGAAGGGUCAUGACUGG [Deportation 70 - Jieux - Exclusion NG 3] (Eterna round: R96, puzzle: Exclusion NG 3) | 30.5 nM | 35.8 nM | 41.9 nM |
| ACAUGAGGAUCACCCAUGUGACCACGAUGGCUGAUGUAAAGACAGGAUAUGUGUGAAUAUCUAUCACAGAAGGGUCUUGACUGG [Deportation 55 - Jieux - Exclusion NG 3] (Eterna round: R96, puzzle: Exclusion NG 3) | 24.1 nM | 22 nM | 30.6 nM |
| ACAUGAGGAUCACCCAUGUGACCAUGAUGGCUGAUGUAGAGCUAGGAUAUGAGUGAAUAUCUAUCUCAGAAGGAGCUUGACUGG [Deportation 48 - Jieux - Exclusion NG 3] (Eterna round: R96, puzzle: Exclusion NG 3) | 16.7 nM | 15.4 nM | 21.3 nM |
| ACAUGAGGAUCACCCAUGUUUUUCGGGUACUCUUUUUACAGCAAGGAUAUGCAUUAUUUAUGUACGCAGAAGGUGCUUUACGUC [JR_ExcNG3_Sub065] (Eterna round: R96, puzzle: Exclusion NG 3) |  | 82.9 nM |  |
| ACAUGAUCAGGAUAUACAUGAGGAUCACCCAUGUAAAUCAAAAAAAAACUUUCUUUAUGUAGAAGGGAUCUUGU [EX3 270: Random 6] (Eterna round: R96, puzzle: Exclusion 3) | 15.2 nM | 13.6 nM | 15.3 nM |
| ACAUGAUGCUUAGGAUAUGUUCUUACGCCAUGAAUAGAAGGGAGCGGACAGAAGUGACCUGACAUGAGGAUCACCCAUGUCUAA [Isusus] (Eterna round: R96, puzzle: Exclusion NG 1) | 84.4 nM | 48 nM | 80.3 nM |
| ACAUGUAUUGCAGGAUAUGGGACACAUGAGGAUCACCCAUGUGACUACAUGUAAUGCCACGGGUCUCAGAAGGGUAUGUACAUG [Ex NG2 #42] (Eterna round: R96, puzzle: Exclusion NG 2) | 81.5 nM | 22.9 nM | 31.3 nM |
| ACAUGUCAUCGAGGAUAUUGGACACAUGAGGAUCACCCAUGUACUCGGUUGCUCUAGCAUGAGUUCGAGAAGGCGAUGUACAUU [Ex NG2 #80] (Eterna round: R96, puzzle: Exclusion NG 2) | 159 nM | 229 nM | 387 nM |
| ACAUGUGUUGUAGGAUAUAGGAUACAUGAGGAUCACCCAUGUGGAUUCAUGUCAAAGGAAGCGUCCUAGAAGGACGGCAACAUG [Ex NG2 #24] (Eterna round: R96, puzzle: Exclusion NG 2) | 46.6 nM | 38.3 nM | 49.6 nM |
| ACAUGUGUUGUAGGAUAUAGGAUACAUGAGGAUCACCCAUGUGGAUUCAUGUCUAAGGAAGCGUCCUAGAAGGACGACAACAUG [Ex NG2 #25] (Eterna round: R96, puzzle: Exclusion NG 2) | 83 nM | 21.6 nM | 27.6 nM |
| ACAUGUUAUCUAGGAUAUUGGACACAUGAGGAUCACCCAUGUACCCGGAGGCUUUACUAUGAGUUCGAGAAGGAGAUGUACAUG [Ex NG2 #71] (Eterna round: R96, puzzle: Exclusion NG 2) | 97.9 nM | 67.6 nM | 73.1 nM |
| ACAUUACAUGAGGAUCACCCAUGUGAGGAUAUGGAGCGGUAGUGUCCUGUCGCGUACACCAGAAGGCGCGGGUG [1st #48] (Eterna round: R97, puzzle: Exclusion 1) | 282 nM |  | 90.6 nM |
| ACAUUGCGAGGAUAUACAUGAGGAUCACCCAUGUGGUGGCAGUUACGGUAGGACUAGUGUAGAAGGUGCCAUGG [EX3 #23] (Eterna round: R97, puzzle: Exclusion 3) | 441 nM |  | 401 nM |
| ACAUUUUAUCCAUGAUAUCACAUGAGGAUCACCCAUGUUAAGGCGAUUUUGAUUUGUAAGCUUUGUGCUCGACUUAU [JR_STOV1_Sub054] (Eterna round: R97, puzzle: Sensor, turn-off variant 1) | 35.6 nM |  | 42.1 nM |
| ACCAAUGCAGGAUAUACAUGAGGAUCACCCAUGUAUAACCUACAUAGAUGAUCAUCAUGUAGAAGGGCAAUGGA [EX3 229: Super Stable 29] (Eterna round: R96, puzzle: Exclusion 3) | 12.2 nM | 11.1 nM | 14.6 nM |
| ACCGCAAGAGGAUAUACAUGAGGAUCACCCAUGUCGACCGCGAGAGACGUGGACCGGCGUAGAAGGCUUGCCAC [Eternabot (Original) Solution 50] (Eterna round: R97, puzzle: Exclusion 3) | 355 nM |  | 56.8 nM |
| ACCUCACAUGAGGAUCACCCAUGUCAGGAUAUCCAACAUGCUCCCAGGACCAAGCAUAGGAGAAGGGACAUGCG (Eterna round: R97, puzzle: Exclusion 1) | 76.5 nM |  | 27.2 nM |
